Measurements published in patent US20100055103A1 (Genentech, published 2010).
Substitutions are numbered along the chain they refer to.

Legend:
[1] = molecular target: T1, Human IL-17F (R&D Systems, cat #1335-IL-025/CF) (human, UniProt Q96PD4 31-163); assay: screening of cross-reactive clones; assay not given
T1 construct: That entry is derived from the native cDNA and may include the signal peptide; also called rhIL-17F; recombinant human IL-17F
T1 sequence: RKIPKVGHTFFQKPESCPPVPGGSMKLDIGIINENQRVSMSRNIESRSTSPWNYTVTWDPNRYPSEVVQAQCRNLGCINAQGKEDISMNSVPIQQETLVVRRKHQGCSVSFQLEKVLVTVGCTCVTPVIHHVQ

[2] = molecular target: T2, Recombinant human IL-17A/F heterodimer (human, UniProt Q16552 24-155; Q96PD4 31-163); assay: as above
T2 construct: also called IL-17A/F (GNE)
T2 sequence (Q16552 24-155 limits assumed, one chain of several): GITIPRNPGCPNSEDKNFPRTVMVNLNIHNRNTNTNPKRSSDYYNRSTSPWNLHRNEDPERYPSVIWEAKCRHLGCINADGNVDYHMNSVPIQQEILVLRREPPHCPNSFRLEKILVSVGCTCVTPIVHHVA

[3] = molecular target: T3, Human IL-17F dimer (baculovirus/Hi5-expressed, His-tag removed by thrombin) (human, UniProt Q96PD4 31-163, limits assumed); assay: X-ray crystal structure, content of the asymmetric unit
T3 construct: The N-terminal His-tag and thrombin site were introduced and then cleaved off; also called purified recombinant IL17F
T3 sequence: T1 sequence

[4] = molecular target: T1, Human IL-17F (R&D Systems, cat …); assay: BIAcore SPR, IgG captured by anti-human Fc

B1: YW278.15 (antibody, V domains shown)
VH: EVQLVESGGGLVQPGGSLRLSCAASGFTFTDYDISWVRQAPGKGLEWVASISPSDGYTYYADSVKGRFTISADTSKNTAYLQMNSLRAEDTAVYYCARYLYWSYVMDYWGQGTLVTVSS
VL: DIQMTQSPSSLSASVGDRVTITCRASQDVSTAVAWYQQKPGKAPKLLIYSASFLYSGVPSRFSGSGSGTDFTLTISSLQPEDFATYYCQQSYTTPPTFGQGTKVEIKR
- binding result [1]: binds
- binding result [2]: binds

B2: Fab fragment of YW 278.15.18.C55S (Fab, V domains shown)
VH: B1 VH with S54P, G56S
VL: B1 VL with T94A, P95K, P96L
notes: also called YW278.15.18C55S Fab
- binding result [3]: binds

B3: YW278.15.18 (antibody, V domains shown)
VH: B1 VH with S54P, G56C
VL: B1 VL with T94A, P95K, P96L
- binding result [4]: binds

B4: YW278.15.2 (antibody, V domains shown)
VH: B1 VH with T28S, T30I, S54Y
VL: B1 VL with S91Y, T93I, T94Y, P96A
- binding result [4]: binds
